Residue numbers refer to the chain shown, from its start.
What was measured:
[1] = test system: T1, dCas12j-8 D234R D234R;D369A;E567A;D658A (bacteriophage (metagenome)); details: HEK293T cells; panel 1c (compare within a panel only); scale: mean GFP / mean GFP of wild type, printed, no background subtraction
T1 sequence: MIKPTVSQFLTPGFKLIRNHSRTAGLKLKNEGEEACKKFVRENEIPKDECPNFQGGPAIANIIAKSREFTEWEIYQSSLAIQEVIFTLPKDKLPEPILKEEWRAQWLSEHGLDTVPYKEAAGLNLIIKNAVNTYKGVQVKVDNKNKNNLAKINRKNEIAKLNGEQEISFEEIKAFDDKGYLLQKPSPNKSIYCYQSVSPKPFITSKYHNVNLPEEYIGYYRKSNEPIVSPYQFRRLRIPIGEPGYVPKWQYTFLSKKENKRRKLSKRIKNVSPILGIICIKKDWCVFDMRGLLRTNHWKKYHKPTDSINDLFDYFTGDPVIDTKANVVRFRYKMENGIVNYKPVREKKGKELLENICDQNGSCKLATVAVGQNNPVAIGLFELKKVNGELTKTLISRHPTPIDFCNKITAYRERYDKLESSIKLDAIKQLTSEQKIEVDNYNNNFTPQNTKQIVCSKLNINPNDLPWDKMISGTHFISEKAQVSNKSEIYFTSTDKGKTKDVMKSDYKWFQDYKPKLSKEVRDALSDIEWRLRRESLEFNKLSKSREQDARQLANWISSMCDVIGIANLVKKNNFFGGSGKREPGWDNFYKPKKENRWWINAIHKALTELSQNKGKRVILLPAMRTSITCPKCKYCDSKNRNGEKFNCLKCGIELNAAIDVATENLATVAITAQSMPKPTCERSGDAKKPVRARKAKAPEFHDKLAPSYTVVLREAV

[2] = test system: T2, dCas12j-8 E258R+D495R+E547R E258R;D495R;E547R;D369A;E567A;D658A (bacteriophage (metagenome)); details: HEK293T cells; panel 1e (compare within a panel only); scale: mean GFP / mean GFP of wild type, printed, no background subtraction
T2 sequence: T1 sequence with R234D, E258R, D495R, E547R

[3] = test system: T3, dCas12j-8 E258R+D313R+D495R E258R;D313R;D495R;D369A;E567A;D658A (bacteriophage (metagenome)); details: HEK293T cells; panel 1e (compare within a panel only); scale: mean GFP / mean GFP of wild type, printed, no background subtraction
T3 sequence: T1 sequence with R234D, E258R, D313R, D495R

[4] = test system: T4, dCas12j-8 E31R E31R;D369A;E567A;D658A (bacteriophage (metagenome)); details: HEK293T cells; panel 1c (compare within a panel only); scale: mean GFP / mean GFP of wild type, printed, no background subtraction
T4 sequence: T1 sequence with E31R, R234D

“CUUUCAAGACUAAUAGAUUGCUCCUUACGAGGAGACACUCCCUAUCAGUGAUAGAG / TTNACTCCCTATCAGTGATAGAG / CTCTATCACTGATAGGGAGTNAA [TetO]” was tested, and the binding signal [1] was 0.475, the binding signal [2] was 4.13 and the binding signal [3] was 4.66. The binding signal [4] was 0.82.

Reference: publication PMC12412624, “Engineered Cas12j‐8 is a Versatile Platform for Multiplexed Genome Modulation in Mammalian Cells”
